Measurements reported in US20080207501A1.
Values belong to the substance of their own block, whether it stands above or below them.

Legend:
Amylin RBA (rat) = Amylin RBA (rat) (UniProt P32214); assay: radioligand binding assay (displacement of radiolabeled amylin)
[1] = molecular target: calcitonin receptor (receptor binding assay); assay: rCalcitonin RBA, method not described
CGRP RBA = CGRP RBA (UniProt Q16602); assay: radioligand binding assay (displacement of radiolabeled CGRP)
[2] = molecular target: CGRP receptor (membranes prepared from SK-N-MC cells) (UniProt Q16602); assay: radioligand displacement, 125I-hCGRP, SK-N-MC cell membranes
Chain of CGRP receptor (membranes prepared from SK-N-MC cells) (Q16602 23-461 limits assumed, chain 1 of 2): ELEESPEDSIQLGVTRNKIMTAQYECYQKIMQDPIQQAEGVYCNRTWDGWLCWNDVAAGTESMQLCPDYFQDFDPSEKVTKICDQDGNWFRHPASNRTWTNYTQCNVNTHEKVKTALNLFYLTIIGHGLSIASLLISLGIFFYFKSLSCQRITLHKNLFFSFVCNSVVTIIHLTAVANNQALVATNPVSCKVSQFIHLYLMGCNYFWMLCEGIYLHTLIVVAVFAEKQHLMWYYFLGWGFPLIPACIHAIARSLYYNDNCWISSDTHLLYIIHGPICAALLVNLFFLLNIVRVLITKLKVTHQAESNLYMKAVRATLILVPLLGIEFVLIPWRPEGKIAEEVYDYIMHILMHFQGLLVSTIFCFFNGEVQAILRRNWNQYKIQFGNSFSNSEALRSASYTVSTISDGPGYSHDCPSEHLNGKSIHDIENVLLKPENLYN
Chain of CGRP receptor (membranes prepared from SK-N-MC cells) (O60894 27-148 limits assumed, chain 2 of 2, further chain): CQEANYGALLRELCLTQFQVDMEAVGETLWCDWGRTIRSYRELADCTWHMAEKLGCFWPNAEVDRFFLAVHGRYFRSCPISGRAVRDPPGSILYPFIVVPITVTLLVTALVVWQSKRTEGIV

[3] = molecular target: calcitonin receptor of CHO cells; assay: cell-based or functional assay
[4] = molecular target: T1, calcitonin receptor of T47D cells (UniProt P30988); assay: cell-based or functional assay
T1 sequence (looked up): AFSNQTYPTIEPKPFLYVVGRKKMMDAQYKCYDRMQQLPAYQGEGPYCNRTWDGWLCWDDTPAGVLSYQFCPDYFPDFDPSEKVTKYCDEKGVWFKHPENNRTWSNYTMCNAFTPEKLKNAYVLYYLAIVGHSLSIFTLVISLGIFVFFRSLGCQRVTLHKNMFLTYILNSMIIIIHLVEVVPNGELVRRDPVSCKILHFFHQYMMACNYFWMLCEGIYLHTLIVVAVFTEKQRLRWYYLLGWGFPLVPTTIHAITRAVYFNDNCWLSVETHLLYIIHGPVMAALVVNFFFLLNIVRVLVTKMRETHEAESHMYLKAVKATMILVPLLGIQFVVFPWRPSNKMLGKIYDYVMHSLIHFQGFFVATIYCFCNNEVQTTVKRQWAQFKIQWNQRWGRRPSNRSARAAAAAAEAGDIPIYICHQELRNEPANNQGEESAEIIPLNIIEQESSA

Chain of Amylin RBA (rat) (P32214 other isoform, or with tags, fused parts or gaps, chain 1 of 2): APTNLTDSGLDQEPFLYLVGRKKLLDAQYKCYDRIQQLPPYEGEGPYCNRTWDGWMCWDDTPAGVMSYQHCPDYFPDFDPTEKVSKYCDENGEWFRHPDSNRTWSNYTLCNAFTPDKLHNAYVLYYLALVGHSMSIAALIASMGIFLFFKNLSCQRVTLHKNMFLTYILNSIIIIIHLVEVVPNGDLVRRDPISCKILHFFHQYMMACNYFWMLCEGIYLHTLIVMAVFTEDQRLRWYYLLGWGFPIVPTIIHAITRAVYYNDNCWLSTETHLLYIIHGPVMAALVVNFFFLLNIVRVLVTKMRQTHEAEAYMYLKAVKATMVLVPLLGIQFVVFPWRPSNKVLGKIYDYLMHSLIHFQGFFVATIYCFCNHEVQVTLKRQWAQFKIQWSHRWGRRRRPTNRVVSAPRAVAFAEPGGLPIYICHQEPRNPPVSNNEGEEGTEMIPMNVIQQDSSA
Chain of Amylin RBA (rat) (Q9JJ74 27-148, chain 2 of 2, further chain): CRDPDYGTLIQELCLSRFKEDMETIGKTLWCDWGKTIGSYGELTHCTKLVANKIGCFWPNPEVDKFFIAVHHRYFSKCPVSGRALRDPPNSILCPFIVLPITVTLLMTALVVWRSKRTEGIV
Chain of CGRP RBA (Q16602 23-461, chain 1 of 2): as the sequence (Q16602 23-461 limits assumed, chain 1 of 2) above
Chain of CGRP RBA (O60894 27-148, chain 2 of 2, further chain): as the sequence (O60894 27-148 limits assumed, chain 2 of 2, further chain) above

EC50 (Amylin RBA (rat)): > 100 nM
Substance: AFP-6 (1-31)

IC50 [1]: 1.3 to 3.4 nM
Substance: r/h Calcitonin (peptide)

EC50 (CGRP RBA): 277 nM
Substance: AFP-6 [1-31]

IC50 [2]: 12 nM
Substance: r/h Amylin (from UniProt P12969 38-74) (peptide)

EC50, cAMP (AlphaScreen), CHO cells, Average [3]: 80.4 nM | EC50, cAMP (AlphaScreen), CHO cells, Experiment 1 [3]: 70.3 nM | EC50, cAMP (AlphaScreen), CHO cells, Experiment 2 [3]: 81.2 nM | EC50, cAMP (AlphaScreen), CHO cells, Experiment 3 [3]: 89.7 nM | EC50, cAMP (AlphaScreen), T47D cells, Average [4]: 35.5 nM | EC50, cAMP (AlphaScreen), T47D cells, Experiment 1 [4]: 11.9 nM | EC50, cAMP (AlphaScreen), T47D cells, Experiment 2 [4]: 66.7 nM | EC50, cAMP (AlphaScreen), T47D cells, Experiment 3 [4]: 27.8 nM
Substance: Human CGRP α (peptide)
